# B1: BM3-CIS-T438S: BM3-CIS + T438S (protein, listed as Bacillus megaterium)
# chain: TIKEMPQPKTFGELKNLPLLNTDKPVQALMKIADELGEIFKFEAPGRVTRYLSSQRLIKEACDESRFDKNLSQALKFARDFAGDGLVTSWTHEKNWKKAHNILLPSFSQQAMKGYHAMMVDIAVQLVQKWERLNADEHIEVSEDMTRLTLDTIGLCGFNYRFNSFYRDQPHPFIISMVRALDEVMNKLQRANPDDPAYDENKRQFQEDIKVMNDLVDKIIADRKARGEQSDDLLTQMLNGKDPETGEPLDDGNIRYQIITFLIAGHEATSGLLSFALYFLVKNPHVLQKVAEEAARVLVDPVPSYKQVKQLKYVGMVLNEALRLWPTAPAFSLYAKEDTVLGGEYPLEKGDEVMVLIPQLHRDKTVWGDDVEEFRPERFENPSAIPQHAFKPFGNGQRACIGQQFALHEATLVLGMMLKHFDFEDHTNYELDIKETLSLKPKGFVVKAKSKKIPLGGIPSPSTEQSAKKVRKKAENAHNTPLLVLYGSNMGTAEGTARDLADIAMSKGFAPQVATLDSHAGNLPREGAVLIVTASYNGHPPDNAKQFVDWLDQASADEVKGVRYSVFGCGDKNWATTYQKVPAFIDETLAAKGAENIADRGEADASDDFEGTYEEWREHMWSDVAAYFNLDIENSEDNKSTLSLQFVDSAADMPLAKMHGAFSTNVVASKELQQPGSARSTRHLEIELPKEASYQEGDHLGVIPRNYEGIVNRVTARFGLDASQQIRLEAEEEKLAHLPLAKTVSVEELLQYVELQDPVTRTQLRAMAAKTVCPPHKVELEALLEKQAYKEQVLAKRLTMLELLEKYPACEMKFSEFIALLPSIRPRYYSISSSPRVDEKQASITVSVVSGEAWSGYGEYKGIASNYLAELQEGDTITCFISTPQSEFTLPKDPETPLIMVGPGTGVAPFRGFVQARKQLKEQGQSLGEAHLYFGCRSPHEDYLYQEELENAQSEGIITLHTAFSRMPNQPKTYVQHVMEQDGKKLIELLDQGAHFYICGDGSQMAPAVEATLMKSYADVHQVSEADARLWLQQLEEKGRYAKDVWAG
# modifications: cytochrome P450NADPH-P-450 reductase precursor, cytochrome P450 (BM3), CYP102A1
# B2: WT-BM3 heme: WT heme domain (amino acids 1-463 of SEQ ID NO: 1) (protein, listed as Bacillus megaterium)
# chain: TIKEMPQPKTFGELKNLPLLNTDKPVQALMKIADELGEIFKFEAPGRVTRYLSSQRLIKEACDESRFDKNLSQALKFVRDFAGDGLFTSWTHEKNWKKAHNILLPSFSQQAMKGYHAMMVDIAVQLVQKWERLNADEHIEVPEDMTRLTLDTIGLCGFNYRFNSFYRDQPHPFITSMVRALDEAMNKLQRANPDDPAYDENKRQFQEDIKVMNDLVDKIIADRKASGEQSDDLLTHMLNGKDPETGEPLDDENIRYQIITFLIAGHETTSGLLSFALYFLVKNPHVLQKAAEEAARVLVDPVPSYKQVKQLKYVGMVLNEALRLWPTAPAFSLYAKEDTVLGGEYPLEKGDELMVLIPQLHRDKTIWGDDVEEFRPERFENPSAIPQHAFKPFGNGQRACIGQQFALHEATLVLGMMLKHFDFEDHTNYELDIKETLTLKPEGFVVKAKSKKIPLGGIPSPST
# modifications: cytochrome P450NADPH-P-450 reductase precursor, cytochrome P450 (BM3), CYP102A1
# B3: WT-AxY: WT heme domain + C400Y (protein, listed as Bacillus megaterium)
# chain: TIKEMPQPKTFGELKNLPLLNTDKPVQALMKIADELGEIFKFEAPGRVTRYLSSQRLIKEACDESRFDKNLSQALKFVRDFAGDGLFTSWTHEKNWKKAHNILLPSFSQQAMKGYHAMMVDIAVQLVQKWERLNADEHIEVPEDMTRLTLDTIGLCGFNYRFNSFYRDQPHPFITSMVRALDEAMNKLQRANPDDPAYDENKRQFQEDIKVMNDLVDKIIADRKASGEQSDDLLTHMLNGKDPETGEPLDDENIRYQIITFLIAGHETTSGLLSFALYFLVKNPHVLQKAAEEAARVLVDPVPSYKQVKQLKYVGMVLNEALRLWPTAPAFSLYAKEDTVLGGEYPLEKGDELMVLIPQLHRDKTIWGDDVEEFRPERFENPSAIPQHAFKPFGNGQRAYIGQQFALHEATLVLGMMLKHFDFEDHTNYELDIKETLTLKPEGFVVKAKSKKIPLGGIPSPST
# modifications: cytochrome P450NADPH-P-450 reductase precursor, cytochrome P450 (BM3), CYP102A1
# notes: WT heme domain + C400Y
# B4: WT-AxS: WT heme domain + C400S (protein, listed as Bacillus megaterium)
# chain: TIKEMPQPKTFGELKNLPLLNTDKPVQALMKIADELGEIFKFEAPGRVTRYLSSQRLIKEACDESRFDKNLSQALKFVRDFAGDGLFTSWTHEKNWKKAHNILLPSFSQQAMKGYHAMMVDIAVQLVQKWERLNADEHIEVPEDMTRLTLDTIGLCGFNYRFNSFYRDQPHPFITSMVRALDEAMNKLQRANPDDPAYDENKRQFQEDIKVMNDLVDKIIADRKASGEQSDDLLTHMLNGKDPETGEPLDDENIRYQIITFLIAGHETTSGLLSFALYFLVKNPHVLQKAAEEAARVLVDPVPSYKQVKQLKYVGMVLNEALRLWPTAPAFSLYAKEDTVLGGEYPLEKGDELMVLIPQLHRDKTIWGDDVEEFRPERFENPSAIPQHAFKPFGNGQRASIGQQFALHEATLVLGMMLKHFDFEDHTNYELDIKETLTLKPEGFVVKAKSKKIPLGGIPSPST
# modifications: cytochrome P450NADPH-P-450 reductase precursor, cytochrome P450 (BM3), CYP102A1
# notes: WT heme domain + C400S
# B5: WT-AxM: WT heme domain + C400M (protein)
# chain: TIKEMPQPKTFGELKNLPLLNTDKPVQALMKIADELGEIFKFEAPGRVTRYLSSQRLIKEACDESRFDKNLSQALKFVRDFAGDGLFTSWTHEKNWKKAHNILLPSFSQQAMKGYHAMMVDIAVQLVQKWERLNADEHIEVPEDMTRLTLDTIGLCGFNYRFNSFYRDQPHPFITSMVRALDEAMNKLQRANPDDPAYDENKRQFQEDIKVMNDLVDKIIADRKASGEQSDDLLTHMLNGKDPETGEPLDDENIRYQIITFLIAGHETTSGLLSFALYFLVKNPHVLQKAAEEAARVLVDPVPSYKQVKQLKYVGMVLNEALRLWPTAPAFSLYAKEDTVLGGEYPLEKGDELMVLIPQLHRDKTIWGDDVEEFRPERFENPSAIPQHAFKPFGNGQRAMIGQQFALHEATLVLGMMLKHFDFEDHTNYELDIKETLSLKPKGFVVKAKSKKIPLGGIPSPST
# modifications: synthetic cytochrome P450-BM3 variant WT-AxM (heme)
# notes: WT heme domain + C400M
# B6: WT-AxN: WT heme domain + C400N (protein)
# chain: TIKEMPQPKTFGELKNLPLLNTDKPVQALMKIADELGEIFKFEAPGRVTRYLSSQRLIKEACDESRFDKNLSQALKFVRDFAGDGLFTSWTHEKNWKKAHNILLPSFSQQAMKGYHAMMVDIAVQLVQKWERLNADEHIEVPEDMTRLTLDTIGLCGFNYRFNSFYRDQPHPFITSMVRALDEAMNKLQRANPDDPAYDENKRQFQEDIKVMNDLVDKIIADRKASGEQSDDLLTHMLNGKDPETGEPLDDENIRYQIITFLIAGHETTSGLLSFALYFLVKNPHVLQKAAEEAARVLVDPVPSYKQVKQLKYVGMVLNEALRLWPTAPAFSLYAKEDTVLGGEYPLEKGDELMVLIPQLHRDKTIWGDDVEEFRPERFENPSAIPQHAFKPFGNGQRANIGQQFALHEATLVLGMMLKHFDFEDHTNYELDIKETLSLKPKGFVVKAKSKKIPLGGIPSPST
# modifications: synthetic cytochrome P450-BM3 variant WT-AxN (heme)
# notes: WT heme domain + C400N
# B7: WT-AxA: WT heme domain + C400A (protein)
# chain: TIKEMPQPKTFGELKNLPLLNTDKPVQALMKIADELGEIFKFEAPGRVTRYLSSQRLIKEACDESRFDKNLSQALKFVRDFAGDGLFTSWTHEKNWKKAHNILLPSFSQQAMKGYHAMMVDIAVQLVQKWERLNADEHIEVPEDMTRLTLDTIGLCGFNYRFNSFYRDQPHPFITSMVRALDEAMNKLQRANPDDPAYDENKRQFQEDIKVMNDLVDKIIADRKASGEQSDDLLTHMLNGKDPETGEPLDDENIRYQIITFLIAGHETTSGLLSFALYFLVKNPHVLQKAAEEAARVLVDPVPSYKQVKQLKYVGMVLNEALRLWPTAPAFSLYAKEDTVLGGEYPLEKGDELMVLIPQLHRDKTIWGDDVEEFRPERFENPSAIPQHAFKPFGNGQRAAIGQQFALHEATLVLGMMLKHFDFEDHTNYELDIKETLSLKPKGFVVKAKSKKIPLGGIPSPST
# modifications: synthetic cytochrome P450-BM3 variant WT-AxA (heme)
# notes: WT heme domain + C400A
# How the values were obtained:
# [1] = N—H insertion, aniline with ethyl 2-diazopropanoate, whole cells; type: cell-based; settings: whole cells expressing enzyme at 2.5 μM
# Method: (§1) The reactions shown in FIG. 37B were carried out with 10 μM catalyst loading, 20 mM aniline, 10 mM Na2S2O4 and 10 mM ethyl 2-diazopropanoate as described above. For the final entry in FIG. 37B, whole cells expressing BM3-CIS-T438S at 2.5 μM were used. See, U.S. Provisional Application No. 61/711,640 for the procedure for catalysis with whole cells.
# [2] = N—H insertion, aniline with ethyl 2-diazopropanoate; type: biochemical; settings: 10 μM catalyst, 20 mM aniline, 10 mM Na2S2O4, 10 mM ethyl 2-diazopropanoate
# Method: The reactions shown in FIG. 37A were carried out with protein (20 μM), ethyl diazo acetate (8.5 mM), aniline (20 mM) and Na2S2O4 (10 mM) in phosphate buffer (pH 8) and allowed to shake at room temperature for 12 h. Yields are reported in parenthesis and TTN are presented in italics. Yields were determined by GC calibrated for each product. An isolated yield of 65% for compound 4.3 was determined for the milligram scale reaction run as follows: 25 mM EDA, 25 mM aniline, 25 μM protein, and 25 mM Na2S2O4. The reaction producing compounds 4.5 and 4.10 were carried out with protein (20 μM), ethyl diazo acetate (10.0 mM), aniline (20 mM) and Na2S2O4 (10 mM).
# While substituted diazo compounds can also be used for insertion, the yield from N—H insertion of ethyl 2-diazopropanoate into aniline is only 26% (product 4.5). To improve efficiency of this reaction, we examined the reaction of ethyl 2-diazopropanoate with a variety of axial mutants. In particular, the axial mutant WT-AxA provided the desired product in 83% yield, compared to 8% yield and 1.7% yield with axial mutant WT-AxS and WT-BM3 heme domain, respectively (FIG. 37B).
# as §1
# [3] = Intramolecular carbene C—H insertion, substrate 4.1a; type: biochemical; settings: for Yield %: 10 mM 4.1a, 10 uM P450, 10 mM Na2S2O4, product 4.2a
# Method: Yield of product 4.22b was established after calibration with phenethyl alcohol as an internal standard. The reaction is not catalyzed by the WT-BM3 heme domain or hemin at 5% catalyst loading.
# A representative procedure for P450-catalyzed C—H insertion is as follows: A vial containing WT-AxD (20 μL, 200 μM) was sealed with a teflon cap and the headspace of this vial was purged with argon for 5 min. Concurrently, a solution of sodium dithionite (11 mM in phosphate buffer pH=8) was degassed for a minimum of 5 min and 360 μL of this solution was transferred to the vial containing protein. The gas lines were disconnected from the vials. The substrate 4.1a or 4.1b was then added as a solution (20 μL, 200 mM). Final concentrations of all components were: 10 uM enzyme, 10 mM substrate, and 10 mM dithionite. […]
# The mixture was extracted with 1 mL cyclohexane and analyzed by GC-MS or GC. GC-MS was performed on a Shimadzu TQ8030 GC-MS with ion count detector and J&W HP-5 column (30 m×0.32 mm, 0.25 μm film) using the following method: 90° C. (hold 2 min), 90-190° C. (20° C./min), and 190-230 (40° C./min)
Molecule,yield of product 4.5 [2],Yield % [3],other results
B1,,,enantioselectivity [1]: 7%; yield of 4.5 [1]: 17%
B2,1.7%,0%,"lactone formation via C—H bond insertion ([3]; substrates 4.1a and 4.1b, 10 μM variant or hemin at 5% catalyst loading, 16 h): not catalyzed"
B3,,trace,
B4,8%,,
B5,,0%,
B6,,0%,
B7,83%,trace,

# — patent publication US20150267232A1, “IN VIVO AND IN VITRO CARBENE INSERTION AND NITRENE TRANSFER REACTIONS CATALYZED BY HEME ENZYMES” (California Institute of Technology, priority 2012, published 2015)
